Molecular target: LUC^N-MLO2^CT-LW/RR (A. thaliana)
Experiment: split reporter

luciferase activity (median): 4900 units/mm^2
Substance: LUC^C-CAM2 (pAMPAT-LUC^C) (from UniProt P0DH97 1-149) (natural protein)

From PMC9900802
